Patent US20070231324A1

Target: CD20 (human) (UniProt P11836)
Experiment: FACS staining of Ramos, Daudi, Raji and BJAB B lymphoma cells

Sequence of UniProt P11836 (P11836 whole entry): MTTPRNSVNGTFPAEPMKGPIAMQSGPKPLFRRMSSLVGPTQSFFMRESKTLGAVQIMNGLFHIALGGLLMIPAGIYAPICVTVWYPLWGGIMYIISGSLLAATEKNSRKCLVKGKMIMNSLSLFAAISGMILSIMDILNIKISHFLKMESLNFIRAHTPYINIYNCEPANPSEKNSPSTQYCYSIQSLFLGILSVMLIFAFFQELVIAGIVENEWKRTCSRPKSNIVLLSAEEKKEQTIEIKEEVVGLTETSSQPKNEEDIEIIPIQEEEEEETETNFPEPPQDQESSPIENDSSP

How did the mean fluorescence shift turn out when “RITUXAN® (rituximab), monoclonal antibody specific for CD20” was run?
The mean fluorescence shift was 5 to 15 units.
